Target: growth hormone receptor on ZFL cells (zebrafish liver cell line) (zebrafish)
Assay: cell-based or functional assay

- increase in cell proliferation relative to no growth hormone added (MTS-formazan conversion assay, ZFL cells): 13.7%
Substance: human growth hormone (from UniProt P01241 27-217) (ligand)

— patent US6429305
